Assay results as given in IntAct's records for PubMed 25910212.

B1: Emerin (Homo sapiens), P50402 (parent)
chain: MDNYADLSDTELTTLLRRYNIPHGPVVGSTRRLYEKKIFEYETQRRRLSPPSSSAASSYSFSDLNSTRGDADMYDLPKKEDALLYQSKGYNDDYYEESYFTTRTYGEPESAGPSRAVRQSVTSFPDADAFHHQVHDDDLLSSSEEECKDRERPMYGRDSAYQSITHYRPVSASRSSLDLSYYPTSSSTSFMSSSSSSSSWLTRRAIRPENRAPGAGLGQDRQVPLWGQLLLFLVFVIVLFFIYHFMQAEEGNPF
partner: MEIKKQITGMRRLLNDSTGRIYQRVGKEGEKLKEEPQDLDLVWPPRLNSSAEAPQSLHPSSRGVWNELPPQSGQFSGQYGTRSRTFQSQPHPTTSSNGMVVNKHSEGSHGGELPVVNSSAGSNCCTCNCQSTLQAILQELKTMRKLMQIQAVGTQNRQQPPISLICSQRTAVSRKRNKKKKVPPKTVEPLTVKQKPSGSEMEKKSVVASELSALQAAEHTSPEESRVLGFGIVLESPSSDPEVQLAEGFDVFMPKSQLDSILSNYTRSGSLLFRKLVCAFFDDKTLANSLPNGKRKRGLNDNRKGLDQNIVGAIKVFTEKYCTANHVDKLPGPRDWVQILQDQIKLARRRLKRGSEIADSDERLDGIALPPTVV
B2: SH2 domain-containing protein 1A (Homo sapiens), O60880 (parent)
chain: MDAVAVYHGKISRETGEKLLLATGLDGSYLLRDSESVPGVYCLCVLYHGYIYTYRVSQTETGSWSAETAPGVHKRYFRKIKNLISAFQKPDQGIVIPLQYPVEKKSSARSTQGTTGIREDPDVCLKAP
B3: U4/U6 small nuclear ribonucleoprotein Prp31 (Homo sapiens), Q8WWY3 (parent)
chain: MSLADELLADLEEAAEEEEGGSYGEEEEEPAIEDVQEETQLDLSGDSVKTIAKLWDSKMFAEIMMKIEEYISKQAKASEVMGPVEAAPEYRVIVDANNLTVEIENELNIIHKFIRDKYSKRFPELESLVPNALDYIRTVKELGNSLDKCKNNENLQQILTNATIMVVSVTASTTQGQQLSEEELERLEEACDMALELNASKHRIYEYVESRMSFIAPNLSIIIGASTAAKIMGVAGGLTNLSKMPACNIMLLGAQRKTLSGFSSTSVLPHTGYIYHSDIVQSLPPDLRRKAARLVAAKCTLAARVDSFHESTEGKVGYELKDEIERKFDKWQEPPPVKQVKPLPAPLDGQRKKRGGRRYRKMKERLGLTEIRKQANRMSFGEIEEDAYQEDLGFSLGHLGKSGSGRVRQTQVNEATKARISKTLQRTLQKQSVVYGGKSTIRDRSSGTASSVAFTPLQGLEIVNPQAAEKKVAEANQKYFSSMAEFLKVKGEKSGLMST
partner: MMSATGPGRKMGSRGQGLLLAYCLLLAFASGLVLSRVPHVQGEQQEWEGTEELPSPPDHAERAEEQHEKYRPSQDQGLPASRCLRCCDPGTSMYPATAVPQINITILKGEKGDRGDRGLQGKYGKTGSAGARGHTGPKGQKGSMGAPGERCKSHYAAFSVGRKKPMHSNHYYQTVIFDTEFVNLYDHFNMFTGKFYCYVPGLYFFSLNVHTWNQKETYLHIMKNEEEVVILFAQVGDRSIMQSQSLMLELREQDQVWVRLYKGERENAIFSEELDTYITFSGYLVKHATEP
B4: Neutrophil cytosol factor 1 (Homo sapiens), P14598 (parent)
chain: MGDTFIRHIALLGFEKRFVPSQHYVYMFLVKWQDLSEKVVYRRFTEIYEFHKTLKEMFPIEAGAINPENRIIPHLPAPKWFDGQRAAENRQGTLTEYCSTLMSLPTKISRCPHLLDFFKVRPDDLKLPTDNQTKKPETYLMPKDGKSTATDITGPIILQTYRAIANYEKTSGSEMALSTGDVVEVVEKSESGWWFCQMKAKRGWIPASFLEPLDSPDETEDPEPNYAGEPYVAIKAYTAVEGDEVSLLEGEAVEVIHKLLDGWWVIRKDDVTGYFPSMYLQKSGQDVSQAQRQIKRGAPPRRSSIRNAHSIHQRSRKRLSQDAYRRNSVRFLQQRRRQARPGPQSPGSPLEEERQTQRSKPQPAVPPRPSADLILNRCSESTKRKLASAV
B5: AMP deaminase 3 (Homo sapiens), Q01432 (parent)
chain: MPRQFPKLNISEVDEQVRLLAEKVFAKVLREEDSKDALSLFTVPEDCPIGQKEAKERELQKELAEQKSVETAKRKKSFKMIRSQSLSLQMPPQQDWKGPPAASPAMSPTTPVVTGATSLPTPAPYAMPEFQRVTISGDYCAGITLEDYEQAAKSLAKALMIREKYARLAYHRFPRITSQYLGHPRADTAPPEEGLPDFHPPPLPQEDPYCLDDAPPNLDYLVHMQGGILFVYDNKKMLEHQEPHSLPYPDLETYTVDMSHILALITDGPTKTYCHRRLNFLESKFSLHEMLNEMSEFKELKSNPHRDFYNVRKVDTHIHAAACMNQKHLLRFIKHTYQTEPDRTVAEKRGRKITLRQVFDGLHMDPYDLTVDSLDVHAGRQTFHRFDKFNSKYNPVGASELRDLYLKTENYLGGEYFARMVKEVARELEESKYQYSEPRLSIYGRSPEEWPNLAYWFIQHKVYSPNMRWIIQVPRIYDIFRSKKLLPNFGKMLENIFLPLFKATINPQDHRELHLFLKYVTGFDSVDDESKHSDHMFSDKSPNPDVWTSEQNPPYSYYLYYMYANIMVLNNLRRERGLSTFLFRPHCGEAGSITHLVSAFLTADNISHGLLLKKSPVLQYLYYLAQIPIAMSPLSNNSLFLEYSKNPLREFLHKGLHVSLSTDDPMQFHYTKEALMEEYAIAAQVWKLSTCDLCEIARNSVLQSGLSHQEKQKFLGQNYYKEGPEGNDIRKTNVAQIRMAFRYETLCNELSFLSDAMKSEEITALTN
B6: U4/U6 small nuclear ribonucleoprotein Prp31 (Homo sapiens), Q8WWY3 (parent)
chain: B3 chain
partner: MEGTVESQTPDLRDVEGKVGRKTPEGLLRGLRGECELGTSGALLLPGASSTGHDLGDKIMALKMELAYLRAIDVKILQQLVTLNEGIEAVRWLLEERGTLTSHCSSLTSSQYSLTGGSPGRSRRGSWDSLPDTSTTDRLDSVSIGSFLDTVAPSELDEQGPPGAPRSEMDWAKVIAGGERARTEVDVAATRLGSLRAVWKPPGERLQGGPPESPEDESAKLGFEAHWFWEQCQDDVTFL
B7: ATP synthase mitochondrial F1 complex assembly factor 2 (Homo sapiens), Q8N5M1 (parent)
chain: MWRSCLRLRDGGRRLLNRPAGGPSASMSPGPTIPSPARAYAPPTERKRFYQNVSITQGEGGFEINLDHRKLKTPQAKLFTVPSEALAIAVATEWDSQQDTIKYYTMHLTTLCNTSLDNPTQRNKDQLIRAAVKFLDTDTICYRVEEPETLVELQRNEWDPIIEWAEKRYGVEISSSTSIMGPSIPAKTREVLVSHLASYNTWALQGIEFVAAQLKSMVLTLGLIDLRLTVEQAVLLSRLEEEYQIQKWGNIEWAHDYELQELRARTAAGTLFIHLCSESTTVKHKLLKE
partner: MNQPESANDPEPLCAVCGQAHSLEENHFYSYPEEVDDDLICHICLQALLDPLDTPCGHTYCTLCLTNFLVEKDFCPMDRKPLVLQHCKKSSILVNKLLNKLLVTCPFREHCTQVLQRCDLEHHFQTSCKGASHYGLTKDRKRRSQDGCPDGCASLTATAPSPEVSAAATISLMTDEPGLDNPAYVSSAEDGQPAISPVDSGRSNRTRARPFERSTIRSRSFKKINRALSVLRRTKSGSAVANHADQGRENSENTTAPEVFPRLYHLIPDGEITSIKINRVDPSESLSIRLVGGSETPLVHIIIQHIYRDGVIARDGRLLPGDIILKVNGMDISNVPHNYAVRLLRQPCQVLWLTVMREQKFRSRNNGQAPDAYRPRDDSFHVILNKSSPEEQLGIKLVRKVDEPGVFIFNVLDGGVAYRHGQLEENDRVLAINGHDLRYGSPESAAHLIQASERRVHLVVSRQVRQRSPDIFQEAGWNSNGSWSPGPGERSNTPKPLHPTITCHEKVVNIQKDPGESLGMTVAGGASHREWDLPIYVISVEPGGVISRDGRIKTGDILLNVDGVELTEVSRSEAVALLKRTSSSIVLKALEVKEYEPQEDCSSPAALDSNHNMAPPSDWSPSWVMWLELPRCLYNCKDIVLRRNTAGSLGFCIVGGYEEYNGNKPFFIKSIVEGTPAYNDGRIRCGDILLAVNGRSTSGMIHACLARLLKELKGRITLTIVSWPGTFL
B8: Plasma membrane ascorbate-dependent reductase CYBRD1 (Homo sapiens), Q53TN4 (parent)
chain: MAMEGYWRFLALLGSALLVGFLSVIFALVWVLHYREGLGWDGSALEFNWHPVLMVTGFVFIQGIAIIVYRLPWTWKCSKLLMKSIHAGLNAVAAILAIISVVAVFENHNVNNIANMYSLHSWVGLIAVICYLLQLLSGFSVFLLPWAPLSLRAFLMPIHVYSGIVIFGTVIATALMGLTEKLIFSLRDPAYSTFPPEGVFVNTLGLLILVFGALIFWIVTRPQWKRPKEPNSTILHPNGGTEQGARGSMPAYSGNNMDKSDSELNSEVAARKRNLALDEAGQRSTM
B9: Proton-coupled zinc antiporter SLC30A2 (Homo sapiens), Q9BRI3 (parent)
chain: MEAKEKQHLLDARPAIRSYTGSLWQEGAGWIPLPRPGLDLQAIELAAQSNHHCHAQKGPDSHCDPKKGKAQRQLYVASAICLLFMIGEVVGGYLAHSLAVMTDAAHLLTDFASMLISLFSLWMSSRPATKTMNFGWQRAEILGALVSVLSIWVVTGVLVYLAVERLISGDYEIDGGTMLITSGCAVAVNIIMGLTLHQSGHGHSHGTTNQQEENPSVRAAFIHVIGDFMQSMGVLVAAYILYFKPEYKYVDPICTFVFSILVLGTTLTILRDVILVLMEGTPKGVDFTAVRDLLLSVEGVEALHSLHIWALTVAQPVLSVHIAIAQNTDAQAVLKTASSRLQGKFHFHTVTIQIEDYSEDMKDCQACQGPSD
partner: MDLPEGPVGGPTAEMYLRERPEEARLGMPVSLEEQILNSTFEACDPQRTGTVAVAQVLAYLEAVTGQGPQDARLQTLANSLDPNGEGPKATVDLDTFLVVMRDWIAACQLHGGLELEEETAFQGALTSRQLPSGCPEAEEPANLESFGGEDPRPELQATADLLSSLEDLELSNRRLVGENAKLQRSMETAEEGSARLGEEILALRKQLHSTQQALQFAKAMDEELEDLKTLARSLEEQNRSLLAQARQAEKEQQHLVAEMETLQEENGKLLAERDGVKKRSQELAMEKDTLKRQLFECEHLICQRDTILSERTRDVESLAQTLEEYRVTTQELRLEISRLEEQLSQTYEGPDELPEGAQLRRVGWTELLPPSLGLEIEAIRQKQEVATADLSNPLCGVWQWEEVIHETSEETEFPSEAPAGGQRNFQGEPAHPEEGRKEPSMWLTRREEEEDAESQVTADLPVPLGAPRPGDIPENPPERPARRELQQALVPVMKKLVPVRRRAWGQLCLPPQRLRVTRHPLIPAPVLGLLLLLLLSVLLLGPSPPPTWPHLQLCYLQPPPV
B10: B-cell lymphoma/leukemia 10 (Homo sapiens), O95999 (parent)
chain: MEPTAPSLTEEDLTEVKKDALENLRVYLCEKIIAERHFDHLRAKKILSREDTEEISCRTSSRKRAGKLLDYLQENPKGLDTLVESIRREKTQNFLIQKITDEVLKLRNIKLEHLKGLKCSSCEPFPDGATNNLSRSNSDESNFSEKLRASTVMYHPEGESSTTPFFSTNSSLNLPVLEVGRTENTIFSSTTLPRPGDPGAPPLPPDLQLEEEGTCANSSEMFLPLRSRTVSRQ
partner: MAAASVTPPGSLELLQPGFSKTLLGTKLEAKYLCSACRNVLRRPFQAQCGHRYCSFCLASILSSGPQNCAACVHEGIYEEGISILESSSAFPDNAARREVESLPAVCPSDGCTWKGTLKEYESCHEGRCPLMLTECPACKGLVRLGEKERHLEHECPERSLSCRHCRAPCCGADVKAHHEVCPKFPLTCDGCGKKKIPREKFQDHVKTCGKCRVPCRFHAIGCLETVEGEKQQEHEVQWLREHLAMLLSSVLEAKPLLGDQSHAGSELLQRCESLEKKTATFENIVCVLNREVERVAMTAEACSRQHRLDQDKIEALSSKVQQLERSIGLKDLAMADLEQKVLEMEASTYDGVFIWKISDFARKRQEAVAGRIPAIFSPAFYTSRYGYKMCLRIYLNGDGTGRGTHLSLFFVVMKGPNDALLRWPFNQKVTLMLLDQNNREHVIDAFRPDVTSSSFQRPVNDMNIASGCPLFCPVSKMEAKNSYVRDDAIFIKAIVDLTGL
B11: Emerin (Homo sapiens), P50402 (parent)
chain: B1 chain
partner: B9 partner

Variants of: B1
Conditions: with BEND7, Q8N7W2-2

Variant	effect of a mutation on the interaction
D72V	with no effect
P183H	with no effect
P183T	with no effect
S54F	with no effect

Variants of: B2
Conditions: with TNK2, Q07912-2
Sequence of TNK2, Q07912-2 (Q07912 other isoform, or with tags, fused parts or gaps): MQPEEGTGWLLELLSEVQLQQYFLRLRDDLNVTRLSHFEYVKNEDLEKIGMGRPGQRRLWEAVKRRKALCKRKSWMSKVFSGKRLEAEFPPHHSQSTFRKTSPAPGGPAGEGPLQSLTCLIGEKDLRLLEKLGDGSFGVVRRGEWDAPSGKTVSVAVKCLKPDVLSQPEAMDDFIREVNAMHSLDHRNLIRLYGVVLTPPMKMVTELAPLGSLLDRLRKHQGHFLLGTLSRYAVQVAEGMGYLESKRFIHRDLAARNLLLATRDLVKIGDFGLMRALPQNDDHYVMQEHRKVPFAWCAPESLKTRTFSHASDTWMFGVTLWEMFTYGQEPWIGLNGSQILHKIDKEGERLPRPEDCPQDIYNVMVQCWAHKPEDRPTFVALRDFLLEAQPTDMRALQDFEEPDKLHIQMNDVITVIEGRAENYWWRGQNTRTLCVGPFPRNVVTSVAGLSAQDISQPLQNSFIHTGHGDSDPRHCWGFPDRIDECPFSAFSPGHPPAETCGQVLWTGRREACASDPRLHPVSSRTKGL

Variant	effect of a mutation on the interaction
P101L	with no effect
R32T	with no effect
G93D	with no effect

Variants of: B3
Conditions: with C1QTNF1, Q9BXJ1-2

Variant	effect of a mutation on the interaction
L107V	with no effect

Variants of: B4
Conditions: with hsp7c_human HSPA8, P11142
Sequence of hsp7c_human HSPA8, P11142 (P11142 whole entry, looked up): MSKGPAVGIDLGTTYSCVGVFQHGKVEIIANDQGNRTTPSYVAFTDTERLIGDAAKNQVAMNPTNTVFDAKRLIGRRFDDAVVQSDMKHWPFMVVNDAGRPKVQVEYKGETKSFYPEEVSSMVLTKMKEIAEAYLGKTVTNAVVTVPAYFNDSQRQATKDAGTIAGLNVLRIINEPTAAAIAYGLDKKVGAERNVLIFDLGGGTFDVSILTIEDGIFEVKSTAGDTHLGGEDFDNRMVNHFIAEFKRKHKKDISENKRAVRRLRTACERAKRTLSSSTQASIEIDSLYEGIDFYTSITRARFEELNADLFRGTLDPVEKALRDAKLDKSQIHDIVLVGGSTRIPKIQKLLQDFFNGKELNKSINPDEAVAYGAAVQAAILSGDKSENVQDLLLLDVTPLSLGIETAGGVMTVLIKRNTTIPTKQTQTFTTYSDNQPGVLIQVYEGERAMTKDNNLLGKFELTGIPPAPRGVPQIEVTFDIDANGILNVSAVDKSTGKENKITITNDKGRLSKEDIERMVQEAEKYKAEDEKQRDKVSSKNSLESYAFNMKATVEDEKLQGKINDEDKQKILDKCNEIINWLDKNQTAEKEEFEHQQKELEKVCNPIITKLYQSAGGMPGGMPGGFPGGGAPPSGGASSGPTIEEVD

Variant	effect of a mutation on the interaction
T53A	with no effect

Variants of: B5
Conditions: with hs90b_human HSP90AB1, P08238
Sequence of hs90b_human HSP90AB1, P08238 (P08238 whole entry): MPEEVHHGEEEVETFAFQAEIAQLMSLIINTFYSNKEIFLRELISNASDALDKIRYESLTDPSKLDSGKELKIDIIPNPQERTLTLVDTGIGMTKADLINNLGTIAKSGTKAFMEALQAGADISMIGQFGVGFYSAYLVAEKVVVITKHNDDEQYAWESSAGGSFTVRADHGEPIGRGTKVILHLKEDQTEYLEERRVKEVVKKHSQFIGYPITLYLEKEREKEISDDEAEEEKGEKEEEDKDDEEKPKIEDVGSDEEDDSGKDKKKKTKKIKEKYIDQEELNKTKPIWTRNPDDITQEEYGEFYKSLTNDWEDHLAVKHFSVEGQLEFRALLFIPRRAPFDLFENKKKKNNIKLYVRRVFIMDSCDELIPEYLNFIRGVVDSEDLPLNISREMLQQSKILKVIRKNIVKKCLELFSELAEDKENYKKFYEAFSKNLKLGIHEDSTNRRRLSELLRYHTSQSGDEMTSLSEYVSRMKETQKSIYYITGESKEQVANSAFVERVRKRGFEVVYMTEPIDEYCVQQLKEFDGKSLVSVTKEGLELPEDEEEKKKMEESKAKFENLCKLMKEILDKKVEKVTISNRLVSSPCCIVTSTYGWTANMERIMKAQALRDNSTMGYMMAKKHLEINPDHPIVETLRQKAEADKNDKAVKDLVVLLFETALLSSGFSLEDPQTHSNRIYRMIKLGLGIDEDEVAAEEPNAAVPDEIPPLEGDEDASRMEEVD

Variant	effect of a mutation on the interaction
A320V	increasing interaction strength
W450R	increasing interaction strength

Variants of: B6
Conditions: with lura1_human LURAP1, Q96LR2

Variant	effect of a mutation on the interaction
L107V	with no effect

Variants of: B7
Conditions: with lnx1_human LNX1, Q8TBB1

Variant	effect of a mutation on the interaction
W94R	disrupting interaction strength

Variants of: B8
Conditions: with stx4_human STX4, Q12846
Sequence of stx4_human STX4, Q12846 (Q12846 whole entry): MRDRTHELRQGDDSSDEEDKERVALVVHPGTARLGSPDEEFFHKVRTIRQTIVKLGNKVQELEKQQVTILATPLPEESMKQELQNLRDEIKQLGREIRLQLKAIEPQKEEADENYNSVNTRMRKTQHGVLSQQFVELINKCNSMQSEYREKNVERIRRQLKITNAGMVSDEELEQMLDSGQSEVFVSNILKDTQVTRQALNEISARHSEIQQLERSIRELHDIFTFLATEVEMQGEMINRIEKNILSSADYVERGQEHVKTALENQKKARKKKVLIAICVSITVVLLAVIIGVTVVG

Variant	effect of a mutation on the interaction
R226H	with no effect

Variants of: B9
Conditions: with kash5_human KASH5, Q8N6L0

Variant	effect of a mutation on the interaction
H54R	with no effect

Variants of: B10
Conditions: with traf2_human TRAF2, Q12933

Variant	effect of a mutation on the interaction
A5S	with no effect

Variants of: B11
Conditions: with kash5_human KASH5, Q8N6L0

Variant	effect of a mutation on the interaction
D72V	with no effect
